Results on one substance are retold here after article PMC9161685.

As a reminder, the stoichiometry N is a count of units in the complex or per binding partner.

This assay concerns the target SARS-CoV-2 main protease (M^pro) triple mutant (Cys85Ser|Cys156Ser|Cys300Ser), (His)6-tagged (SARS-CoV-2). The assay is described as follows: SEC-MALS. (In gel filtration, larger molecules generally elute earlier.)

In the case of “SARS-CoV-2 main protease (M^pro) triple mutant (Cys85Ser|Cys156Ser|Cys300Ser), (His)6-tagged (enzyme)”, the stoichiometry N worked out at 2.
